Source: FireProtDB (doi:10.1021/bi0118052)
Several values for one entry are separate records, joined by “and”; a condition that tells them apart may be missing. Equal values may be shown once.

B1: Protein S100-B, P04271 (parent)
chain: MSELEKAMVALIDVFHQYSGREGDKHKLKKSELKELINNELSHFLEEIKEQEVVDKVMETLDNDGDGECDFQEFMAFVAMVTTACHEFFEHE

Variants of: B1
Conditions: Homo sapiens; pH 7.2; 25 °C; GdnHCl; CD; MOPS 10 mM; KCl 50 mM; reversible: yes; structure 1UWO; whole UniProt chain shown

Variant | denaturant m value | denaturant midpoint (higher = more stable) | unfolding free energy | ddG of mutation (higher = less stable)
L4A I12A | 2.84 kcal/mol/M and 1.77 kcal/mol/M | 2.1 M and 3.3 M | 12.2 kcal/mol | 
I12A | 2.75 kcal/mol/M and 1.43 kcal/mol/M | 2.3 M and 4.2 M | 13.2 kcal/mol | 
M8A | 1.36 kcal/mol/M | 3.6 M |  | 0.65 kcal/mol
L4A F15A | 1.67 kcal/mol/M and 0.81 kcal/mol/M | 1.3 M and 1.7 M | 8.39 kcal/mol | 8.94 kcal/mol and 5.16 kcal/mol
L4S | 3.3 kcal/mol/M and 2.29 kcal/mol/M | 2.4 M and 3.2 M | 14.5 kcal/mol | 
L4A | 3.49 kcal/mol/M and 1.58 kcal/mol/M | 2.7 M and 3.7 M | 16.1 kcal/mol | 
F15A | 1.94 kcal/mol/M and 1.08 kcal/mol/M | 1.8 M and 2.3 M | 9.78 kcal/mol | 7.53 kcal/mol and 3.42 kcal/mol
